To fix the notation:
B1: Ras-related protein Rab-39B (Mus musculus), Q8BHC1 (parent)
chain: MEAIWLYQFRLIVIGDSTVGKSCLIRRFTEGRFAQVSDPTVGVDFFSRLVEIEPGKRIKLQIWDTAGQERFRSITRAYYRNSVGGLLLFDITNRRSFQNVHEWLEETKVHVQPYQIVFVLVGHKCDLDTQRQVTRHEAEKLAAAYGMKYIETSARDAINVEKAFTDLTRDIYELVKRGEITIQEGWEGVKSGFVPNVVHSSEEVIKSERRCLC
partner: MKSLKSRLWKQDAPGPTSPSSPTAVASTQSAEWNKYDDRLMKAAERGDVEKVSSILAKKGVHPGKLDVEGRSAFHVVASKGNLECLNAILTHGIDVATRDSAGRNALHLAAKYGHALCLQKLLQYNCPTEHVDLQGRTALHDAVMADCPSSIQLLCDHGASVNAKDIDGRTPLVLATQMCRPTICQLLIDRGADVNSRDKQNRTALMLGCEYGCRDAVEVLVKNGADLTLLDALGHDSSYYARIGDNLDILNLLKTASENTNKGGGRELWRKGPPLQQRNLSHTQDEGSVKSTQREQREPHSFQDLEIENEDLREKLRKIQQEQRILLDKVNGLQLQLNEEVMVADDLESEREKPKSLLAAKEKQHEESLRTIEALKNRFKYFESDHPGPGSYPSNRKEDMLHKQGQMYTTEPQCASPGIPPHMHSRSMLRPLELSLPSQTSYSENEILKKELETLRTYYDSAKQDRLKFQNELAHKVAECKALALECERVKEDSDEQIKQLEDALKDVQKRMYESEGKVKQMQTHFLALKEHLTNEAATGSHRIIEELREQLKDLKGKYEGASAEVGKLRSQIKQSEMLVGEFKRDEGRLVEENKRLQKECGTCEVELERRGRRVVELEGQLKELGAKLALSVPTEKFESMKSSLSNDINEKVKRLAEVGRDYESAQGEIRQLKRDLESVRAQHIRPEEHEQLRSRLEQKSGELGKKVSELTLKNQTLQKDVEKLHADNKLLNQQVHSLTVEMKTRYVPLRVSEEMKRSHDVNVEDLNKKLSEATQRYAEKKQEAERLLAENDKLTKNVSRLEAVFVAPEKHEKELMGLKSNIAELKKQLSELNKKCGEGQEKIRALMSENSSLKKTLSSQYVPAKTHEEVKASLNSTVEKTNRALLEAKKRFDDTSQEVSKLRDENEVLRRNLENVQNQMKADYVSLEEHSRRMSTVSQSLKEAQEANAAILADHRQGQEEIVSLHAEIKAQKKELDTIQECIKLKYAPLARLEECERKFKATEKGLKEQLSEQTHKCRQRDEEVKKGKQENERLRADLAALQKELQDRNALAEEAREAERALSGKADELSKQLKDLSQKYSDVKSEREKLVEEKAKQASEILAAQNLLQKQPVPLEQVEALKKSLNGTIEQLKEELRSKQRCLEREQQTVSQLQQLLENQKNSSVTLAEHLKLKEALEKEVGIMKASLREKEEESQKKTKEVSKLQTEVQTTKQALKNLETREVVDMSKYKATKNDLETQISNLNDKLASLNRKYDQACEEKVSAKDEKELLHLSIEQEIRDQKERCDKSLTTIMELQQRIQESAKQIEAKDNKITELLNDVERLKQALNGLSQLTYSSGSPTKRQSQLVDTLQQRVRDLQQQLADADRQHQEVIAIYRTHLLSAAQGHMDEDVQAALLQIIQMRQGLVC
B2: Ras-related protein Rab-39A (Mus musculus), Q8BHD0 (parent)
chain: METIWIYQFRLIVIGDSTVGKSCLLHRFTQGRFPGLHSPACDPTVGVDFFSRLLEIEPGKRIKLQLWDTAGQERFRSITRSYYRNSVGGFLVFDITNRRSFEHVKDWLEEAKMHVQPFQIVFLLVGHKCDLASQRQVSREEAERLSTDCGMKYIETSAKDATNVEESFTILTRDIYELIKKGEICIQDGWEGVKSGFVPNTVHSSEEAVKPRKECFC
partner: B1 partner

Conditions in all cases: with Uaca
Assay [1] covers variants of B1.
In assay [2] the parent is B1. The source holds these as a separate data set.
In assay [3] the parent is B2. The source holds these as a separate data set.
In assay [4] the parent is B2. The source holds these as a separate data set.

For the variant MEAIWLYQFRLIVIGDSTVGKNCLIRRFTEGRFAQVSDPTVGVDFFSRLVEIEPGKRIKLQIWDTAGQERFRSITRAYYRNSVGGLLLFDITNRRSFQNVHEWLEETKVHVQPYQIVFVLVGHKCDLDTQRQVTRHEAEKLAAAYGMKYIETSARDAINVEKAFTDLTRDIYELVKRGEITIQEGWEGVKSGFVPNVVHSSEEVIKSERRCLC [S22N], the entries for the “effect of a mutation on the interaction” value in assay [1] and in assay [2] were “disrupting interaction” and “decreasing interaction”, respectively.
Consider METIWIYQFRLIVIGDSTVGKNCLLHRFTQGRFPGLHSPACDPTVGVDFFSRLLEIEPGKRIKLQLWDTAGQERFRSITRSYYRNSVGGFLVFDITNRRSFEHVKDWLEEAKMHVQPFQIVFLLVGHKCDLASQRQVSREEAERLSTDCGMKYIETSAKDATNVEESFTILTRDIYELIKKGEICIQDGWEGVKSGFVPNTVHSSEEAVKPRKECFC [S22N], for which the “effect of a mutation on the interaction” value is reported as “disrupting interaction” in assay [3] and “decreasing interaction” in assay [4].

The record behind these values is IntAct's records for PubMed 23624502.
